# Source: the DeepSol protein solubility set
# Assay: soluble on expression in E. coli; label from the status in PepcDB or PDB records
row,Sequence,soluble on expression in E. coli
1,MDTIWELDFYSRPLVDENNKKIWELLVCDRQQQFQFSKTCAGAEANARWLAAALEEAMDQWRQQLGLAEGVQPQRVRFFRRAMSSIITRGGEAAGLVMVPSRRTFALYDWLRDRATNFYPTLPNYQADLATPPQLPPPAPQPLPPALQGDRWQLSGLPLGEIKTAAEWELPFGEVPPLPFLTLNDDTLLPGLIIYSQRALPLAGWLSGLEPASLSFEETPQPLLILETGASDRWILIRGRNPQIQKELAAFKDACTQSQGLHFIAVKEQPTQETLQGFWLLQQTPELLEHHHHHH,soluble
2,MSLKLPDEEFKLALEVARARIKAKDKFSRSDLWFDLEGLRYATHEVVADYRGRRLKGQGVKSIADVSCGVGIQLIFFAKHGIRSVGIDIDPIKIEFAKRNAEKYGVEVEWVVGDALSPEIIEKVDAEVIFSDPARPPEVPERNLEDLLPSPLKIYEAYKHKTDSFIFDLPPQIRREKVPWKGEFEYIDLFGHVNRLTEGHHHHHH,not soluble
3,MDEDTEDWETQLQANRDEKDRFFSEHRQSPIPPEERDDFDGLSYFDPDPDYRVEATVTVHETPESVDLETSDDRTVRYLHVATLSFDLDGESRDLHAFRQAADESRTLFVPFRDKTTGQQSYDGGRYMELEPDRDLSDGDEITLDFNLAYSPFCAYSDTFSCPLPPESNWLETAVTAGERTDLEHHHHHH,soluble
4,MSQQVIIFDTTLRDGEQALQASLSVKEKLQIALALERMGVDVMEVGFPVSSPGDFESVQTIARQVKNSRVCALARCVEKDIDVAAESLKVAEAFRIHTFIATSPMHIATKLRSTLDEVIERAIYMVKRARNYTDDVEFSCEDAGRTPIADLARVVEAAINAGATTINIPDTVGYTMPFEFAGIISGLYERVPNIDKAIISVHTHDDLGLAVGNSLAAVHAGARQVEGAMNGIGERAGNCSLEEVIMAIKVRKDILNVHTAINHQEIWRTSQLVSQICNMPIPANKAIVGSGAFAHSSGIHQDGVLKNRENYEIMTPESIGLNQIQLNLTSRSGRAAVKHRMDEMGYKESEYNLDNLYDAFLKLADKKGQVFDYDLEALAFIGKQQEEPEHFRLDYFSVQSGSNDIATAAVKLACGEEVKAEAANGNGPVDAVYQAINRITDYNVELVKYSLTAKGHGKDALGQVDIVANYNGRRFHGVGLATDIVESSAKAMVHVLNNIWRATEVEKELQRKAQHNENNKETV,not soluble
5,AIYVDLPNRQLKVKVADRRVISTTDAERQAVTPPGLQEAINDLVKKYTLARAFVRPSGTEDIVRVYAEANSQESADRLAYEVSLLVFQLAGGIGERPQP,soluble
6,MTIDTELTNGSSESVPFVFIGGGNMAAAIIKGCQNKGFTPKSNIVIGVQTEKSAEKWRQLGYKNVFTNTLEMLERYSTAIYVICVKPQVFEEVVSSWPVNSRPEFIISVMAGVPLKVLNAKLPFVSGNTTIVRLMPNVASSIGAGASTMCYEKNEKIMNQDSHIELAREFAECVGTVELIPERCFNPAMAIGGSSPAWTFMYIESLADGAVAQGLGRAEAKRLAAQAVLGAAQMVLNSNSGFDIETQHFGSLKDMVCSPGGTTIEGVRALEKNGFRYAVMEAVVAASTKADEMAKSLAK,soluble
7,MAHHHHHHMENKENLRNQQEFNQLCRILRLVEGDPGQVVKEPPNLGILIEVLQKMVKATFVKESSYQEAVDAREKWKSTDSTVETKNIMDKQRADDLVRYKITHEKLKKLLAKAKMLVSRIKEERYLAYVSRNAALEKMAKVVYGSSAEKMFRNETEFEKFLANSQGTIVGKTAKETCGMSNDKMKNVSFAGYSLVGDFFCLCVGENNNATLCDKSFSGPREEHKWTKVMFEDKLVDFAAGWFKIRGLCYVNATSGIKDVVTPENISTEIVAFNKMLGRQRDDVQIYRREAESYRQYILGRVEQVGFTDSAICTGEHQHMCVNYAQCLVSNKGIPWQLKLMEAEEDLEDVEKHNMEVHVLIGRLDKLIEKIKKAAEQLSQEMEGIDVAVEKVQLLEEEIEENETTGKSEATAGEFNDNAQPEEGSLDKCEYWGMFSILFGVVAFSLV,not soluble
8,MQTVNNIISSVSTVESKAYRDAMSHYAGAVQIVTTAGAAGRRGLTLTAACSVSDNPPTILICLQKIHEENRIFIENGVFAINTLAGPHQQLADAFSGRIGLTQDERFELAAWEILATGAPVLKGALAAFDCRVVSVQDHSTHHVLFGEVVGLSSHAEEEALIYLNRRYHKLEL,soluble
9,MVESWALTTPPIDIVNQYLFFIKRKTNYMATYYYALASQKFLLEEEPFEEVLKERRRDYGEKNKEIDFWQVIQPAFLNAPELAEAKAKAPEKNVAIVSTNKSFIVWVKLRLEYVLTGEFEAPSDAIPDPLASLDLEHHHHHH,not soluble
10,MGSDKIHHHHHHMGLGHEQGFGAPCLKCKENCEGFELHFWRKICRNCKCGQEEHDVLLSNEEDRKVGRLFEDTKYTTLIAKLKSDGIPMYKRNVMILTNPVAAKKNVSINTVTYEWAPPVQNQALARQYMQMLPKEKQPVAGSEGAQYRKKQLAKQLPAHDQDPSKCHELSPKEVKEMEQFVKKYKSEALGVGDVKFPSEMNAQGDKVHNPAGDRHAPAAVASKDKSAESKKTQYSCYCCKHTMNEGEPAIYAERAGYDKLWHPACFICSTCGELLVDMIYFWKNGKLYCGRHYCDSEKPRCAGCDELIFSNEYTQAENQNWHLKHFCCFDCDHILAGKIYVMVTDKPVCKPCYVKNHAVVCQGCHNAIDPEVQRVTYNNFSWHASTECFLCSCCSKCLIGQKFMPVEGMVFCSVECKRMMS,soluble
11,GFLSHLDIVSTFNDHLAQRHDLDPYTVTLTVREGGEVVYIGCRNSAQPLGHTFRIGMRLPAPFTATGKILLSDLGPGELRMLFSQFPQPLTSRSVAGLSQLEEELALTRARGYSIDDGQIREGMLCIGAAIRDYSGAASAGIAISLIRSEASDEKIASLGEELRTTANALSEKLGYRSQKD,soluble
12,MTKIAFTGGGTVGHVSVNLSLIPTALSQGYEALYIGSKNGIEREMIESQLPEIKYYPISSGKLRRYISLENAKDVFKVLKGILDARKVLKKEKPDLLFSKGGFVSVPVVIAAKSLNIPTIIHESDLTPGLANKIALKFAKKIYTTFEETLNYLPKEKADFIGATIREDLKNGNAHNGYQLTGFNENKKVLLVMGGSLGSKKLNSIIRENLDALLQQYQVIHLTGKGLKDAQVKKSGYIQYEFVKEDLTDLLAITDTVISRAGSNAIYEFLTLRIPMLLVPLGLDQSRGDQIDNANHFADKGYAKAIDEEQLTAQILLQELNEMEQERTRIINNMKSYEQSYTKEALFDKMIKDALN,not soluble
13,MFKRETKDFINIDPLQTGGKLTEEARQALLEWGDGYSVCDFCTTGRLDEIKTPPIHDFIHNQLPKFLGCDVARVTNGAREAKFAVMHSLAKKDAWVVMDENCHYSSYVAAERAGLNIALVPKTDYPDYAITPENFAQTIEETKKRGEVVLALITYPDGNYGNLPDVKKIAKVCSEYDVPLLVNGAYAIGRMPVSLKEIGADFIVGSGHKSMAASGPIGVMGMKEEWAEIVLRRSEKYKNKEVELLGCTARGATIITLMASFPHVRERIKRWDEEVEKARRFAAEMEKLGIKQLGDNPHNHDLMFFHAEVLYEISKKAKGGRFFLYRELKSRKIHGIKPGLTRYFKLSTYGLSDEEVDYVLNAFKEIIEKYS,soluble
14,MGSDKIHHHHHHVTTQLKETPPSDTSSINLEAEFQASNIKEVLDKLDRELIGLKPVKTRIRETAALLLVDRVRKKLDLTAGAPSLHMSFTGNPGTGKTTVAQRMSEILHRLGYVREGHLVSVTRDDLVGQYIGHTAPKTKEVIKKAMGGVLFIDEAYYLYKPENERDYGAESIEILLQVMENNRDDLVVILAGYKDRMDKFFRSNPGMRSRIAHHIDFPDYSPDELVAIAKLMLAAQNYRLSAEAEKAFGEYIRLRMKMEHFANARSVRNALDRARLRQANRLFEGAKKNLSRTDLITIEAEDIRASRVFVEGAVDLDGDEGASRELSEESV,not soluble
15,MGGLTLFAAQGCKAPKQVAEQAEHPNIIYVFPDQYRNQAMGFWNQEGFRDKVNFRGDPVHTPNIDTFARESMVLTSAQSNCPLSSPHRGMLLTGMYPNRSGVPLNCNSTRPISSLRDDAECIGDVFSKAGYDCAYFGKLHADFPTPNDPENPGQYVETQRPVWDAYTPKEQRHGFNYWYSYGTFDEHKNPHYWDTDGKRHDPKEWSPLHESGKVVSYLKNEGNVRDTKKPFFIMVGMNPPHSPYRSLNDCEEQDFNLYKDQPLDSLLIRPNVDLNMKKAESVRYYFASVTGVDRAFGQILEALKQLGLDKNTVVIFASDHGETMCSQRTDDPKNSPYSESMNIPFLVRFPGKIQPRVDDLLLSAPDIMPTVLGLCGLGDSIPSEVQGRNFAPLFFDEKAEIVRPAGALYIQNLDGEKDKDGLVQSYFPSSRGIKTARYTLALYIDRKTKQLKKSLLFDDVNDPYQLNNLPLDENKEVVEQLYREMGTMLKEIDDPWYTEKILSDRIPYLEHHHHHH,not soluble
16,MEPMRIGPRLSVAAVSHVGRRQNNEDFHRVLPLETPAGLLLLLAVADGMGGLEAGEWASKLAIEALSEAARGYAEHLQSGRPAVGLARVMEKGFLLARRRVEREAERPGRRGMGTTLTAFLYADWLKEGVVGHIGDSRAYRFGPTGVFRLTEDHSWVAERLKEGVLTRTEAERHPYRNVLTRALGLPEARFDLVEVRLAPGEGVLLVTDGLYGHVPEEEWRLGRDLQASLEAMVAEALRRGGDDNVTAVALRVE,soluble
17,FTLVCITAASRHHWGTEVDIFDPDLLPRGQSLQLEPWEYEKGGYFFELSEFLAENLPHFDFALPFMNMQSNKKVGREPWHISYLPL,not soluble
18,MSDADSQKQIKLTSSDDKTFTVSRKVISQSKTITDIIQNLGIEESGSTSEDTIPLQKVTSTILEKIITWCEHHADDEPKKVDENKKTVDISEWDAEFMKVDQGTLFEIILAANYLDIRGLLDVTTQNVANMMKGKTPSQIRTLFNIENDFSEEEREAMKKENAWCED,not soluble
19,MVLLLIVNKYWKVNDMKNEIQKNMDKYNPWHEDDFESYEDIARDVSLTTDKTFIEHYLLEVYSEENGHFDQENVHAMIEEIKNAI,not soluble
20,MGSDKIHHHHHHMRLLFSTMFLYEYSTDMIAKAVNLAGYDGVEFWPETPYFWVDRAMEKLECLRDFDNAIHVPVLDLNPVSVNPDICNLTLRETLYSIALAAKIKAKPVTVHAGRRSAAREPVWADYLSLSRYLRISSRYAKIKGVTVGLENSENSINNLCKTADEVRKFAEEYDVMVTLDIKHALLNGGVEEFLELFGRICNVHVSYYDEKMRHVQPSRGKEVGDALKELAELGYDGPLTVELDDLGIGNLDFSKKVEILRKERRFVEKFFKR,not soluble
21,MNSSSTLQKLLDRRGQAANGNSATQAVQWQEGMNLTLHVNGDSLTMLAEIINLRADPQDDILLRKLLAHAFPGLRLRRGALTINPDENTLVYSYEHDFLALDKTRFENLLANFAETTQELRNTAQRLR,not soluble
22,HEHPTSAGGDGGAGTGAVGTHDGSAAAAAAAAALPSISGARGHAGPEGGHDNDMGGMDASGGGGGGGYGRLPGLAAQSSMASVDGDEASLPPIANLSLGKANMTGSTVGGAAHASTRRSTLNTYYEPGAGGGGGTGGAGGGGGGAGPGPAGYGKVAKAAAVGGAGSVAGGGGVVGGAGVGGGGAVGSGTVGRRQSVGVVVGKYGSVNKQASQGHGGGGPGVAGAAGMAVTGGHAGGGVGGGGGGAVGVGGVGVNKYKANVGKTNSKYISPYSLRQLAG,not soluble
23,MAHHHHHHMVLYIIGLGLGDEKDITIKGKELIEKSDVVYLETYTSILFVSKDVLEETYKKSIEEVDRDFAEENCDKILDEAKNKKVSFLVVGDPLCATTHHDIILRAKKKNIDVEIIHNTSIISAIGECGMQLYNFGQIVSIPYFEDNYKPTSYYDKIYINLKNNFHTLCLLDIKVKERTVENIMRNKKIYEPPRFMTINDSIEQLLYCEHIHKKNIITKNTLGIAIIQIGTDNQQIISGDLLTLKDISYNKPLHSLIICAPTLHDIEKEYFDLYHYNNMKK,not soluble
